Laboratory results as given in US20040259112A1.

Experiments:
[1] = biological target: human vimentin (full length) (human) (UniProt P08670); test: quantitative FACS (quantum simply cellular beads) on MCF-7/AR cells at saturating antibody (50 µg)
[2] = biological target: human vimentin (full length) (human) (UniProt P08670); test: quantitative FACS (quantum simply cellular beads) on HL60 cells at saturating antibody (40 µg)
[3] = biological target: human vimentin (full length) (human) (UniProt P08670); test: Scatchard analysis, intact cell radioimmunoassay with 125I-labeled antibody on MDA cells
[4] = biological target: human vimentin (full length) (human) (UniProt P08670); test: cell-based or functional assay
[5] = biological target: human vimentin (full length) (human) (UniProt P08670); test: quantitative FACS (quantum simply cellular beads) on HL60/AR cells at saturating antibody (40 µg)
[6] = biological target: human vimentin (full length) (human) (UniProt P08670); test: Scatchard analysis, intact cell radioimmunoassay with 125I-labeled antibody on MDA/mito cells; average of 5 determinations
[7] = biological target: human vimentin (full length) (human) (UniProt P08670); test: FACS, indirect immunofluorescence on HL60 cells with 2.5 µg to 40 µg antibody; isotype control subtracted
[8] = biological target: human vimentin (full length) (human) (UniProt P08670); test: quantitative FACS (quantum simply cellular beads) on MCF-7 cells at saturating antibody (50 µg)

human vimentin (full length) (human), sequence (P08670 other isoform, or with tags, fused parts or gaps limits assumed): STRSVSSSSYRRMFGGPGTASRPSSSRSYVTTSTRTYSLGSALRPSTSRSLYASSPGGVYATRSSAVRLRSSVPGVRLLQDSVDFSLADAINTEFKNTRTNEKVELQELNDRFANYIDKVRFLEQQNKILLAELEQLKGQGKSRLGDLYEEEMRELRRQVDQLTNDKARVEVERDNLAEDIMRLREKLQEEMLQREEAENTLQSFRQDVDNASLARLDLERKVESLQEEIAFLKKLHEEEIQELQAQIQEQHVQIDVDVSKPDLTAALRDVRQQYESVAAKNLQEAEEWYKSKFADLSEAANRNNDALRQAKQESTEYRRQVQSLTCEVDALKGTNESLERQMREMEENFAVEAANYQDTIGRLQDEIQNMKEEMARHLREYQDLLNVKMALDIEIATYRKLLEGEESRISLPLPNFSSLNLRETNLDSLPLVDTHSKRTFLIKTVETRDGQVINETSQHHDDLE

antibody molecules bound per cell (molecules of vimentin per cell) (molecules per cell) [1]: 22000
antibody molecules bound per cell (molecules of vimentin per cell) (molecules per cell) [2]: 186
Kd [3]: 9.3 nM
% internalization of 125I-labeled antibody, MCF-7/AR cells in suspension (difference between 4 and 37° C.) [4]: 38.2%
percent internalization of vimentin, adherent MCF-7/AR cells (difference between 4 and 37° C.) [4]: 11.3%
percent internalization of vimentin, adherent MDA cells (difference between 4 and 37° C.) [4]: 25.3%
percent internalization of vimentin, adherent MDA/AR cells (difference between 4 and 37° C.) [4]: 24.8%
percent internalization of vimentin, adherent MDA/mito cells (difference between 4 and 37° C.) [4]: 8.9%
antibody molecules bound per cell (molecules of vimentin per cell) (molecules per cell) [5]: 5050
Kd [6]: 5.7 nM
fluorescence intensity (RFI) [7]: 0.2 to 0.9 RFI
antibody molecules bound per cell (molecules of vimentin per cell) (molecules per cell) [8]: 14600
Substance: mouse monoclonal anti-vimentin antibody (clone V9, NeoMarker MS-129-P)
increase in cytotoxicity of 125I-labeled antibody on HL60/AR against HL60 (MTT based assay) [4]: 10%
